Measurements taken from patent publication US20260001954A1 (Genentech, published 2026).

Columns and labels:
[1] = biological target: CD3 on T cells of human peripheral blood mononuclear cells (PBMCs) (human, UniProt P07766 23-207); test: cell-based or functional assay
[2] = biological target: T1, CD3 (cluster of differentiation 3) (UniProt P07766 23-126); test: method not stated; monovalent KD used to calculate CD3 receptor occupancy; monovalent KD, used for CD3 receptor occupancy
T1 construct: also called CD3 antigen
T1 sequence (P07766 23-126): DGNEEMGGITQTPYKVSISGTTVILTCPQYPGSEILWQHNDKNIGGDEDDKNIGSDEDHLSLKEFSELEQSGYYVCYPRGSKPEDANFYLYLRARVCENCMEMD

Sequence of CD3 on T cells of human peripheral blood mononuclear cells (PBMCs) (P07766 23-207): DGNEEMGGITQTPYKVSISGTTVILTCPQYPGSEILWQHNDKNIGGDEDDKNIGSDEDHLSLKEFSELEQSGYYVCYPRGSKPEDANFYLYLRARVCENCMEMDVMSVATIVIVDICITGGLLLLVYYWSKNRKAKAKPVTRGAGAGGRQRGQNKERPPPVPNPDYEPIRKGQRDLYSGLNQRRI

50% effective concentration (EC50) for T-cell activation in the in vitro human PBMC: MOLP-2 co-culture [1]: 0.0588 µg/mL | Kd [2]: 2.6 nM
B1: cevostamab (bispecific antibody, human IgG1, kappa, N297G)
heavy 1: not shown
light 1: DIQMTQSPSSLSASVGDRVTITCKASQDVRNLVVWFQQKPGKAPKLLIYSGSYRYSGVPSRFSGSGSGTDFTLTISSLQPEDFATYYCQQHYSPPYTFGQGTKVEIKRTVAAPSVFIFPPSDEQLKSGTASVVCLLNNFYPREAKVQWKVDNALQSGNSQESVTEQDSKDSTYSLSSTLTLSKADYEKHKVYACEVTHQGLSSPVTKSFNRGEC
heavy 2: EVQLVQSGAEVKKPGASVKVSCKASGFTFTSYYIHWVRQAPGQGLEWIGWIYPENDNTKYNEKFKDRVTITADTSTSTAYLELSSLRSEDTAVYYCARDGYSRYYFDYWGQGTLVTVSSASTKGPSVFPLAPSSKSTSGGTAALGCLVKDYFPEPVTVSWNSGALTSGVHTFPAVLQSSGLYSLSSVVTVPSSSLGTQTYICNVNHKPSNTKVDKKVEPKSCDKTHTCPPCPAPELLGGPSVFLFPPKPKDTLMISRTPEVTCVVVDVSHEDPEVKFNWYVDGVEVHNAKTKPREEQYGSTYRVVSVLTVLHQDWLNGKEYKCKVSNKALPAPIEKTISKAKGQPREPQVYTLPPSREEMTKNQVSLSCAVKGFYPSDIAVEWESNGQPENNYKTTPPVLDSDGSFFLVSKLTVDKSRWQQGNVFSCSVMHEALHNHYTQKSLSLSPGK
light 2: not shown
notes: Humanized full-length non-glycosylated IgG1 kappa, knobs-into-holes; also called BFCR4350A; RO7187797
